Among the data in article PMC8537613 are Kd values, retold here.

Assay in all cases: ELISA
Assay [1] deals with RSV sG.
The target of assay [2] is RSV FxG (respiratory syncytial virus A2 | respiratory syncytial virus (strain not stated for G)) (UniProt P03423).
The target of assay [3] is NiV FxG (Nipah virus (Malaysia strain) | Nipah virus) (UniProt Q9IH63).
Assay [4] deals with RSV F clamp (respiratory syncytial virus A2) (UniProt P03420).
Chain of RSV F clamp (respiratory syncytial virus A2) (P03420 whole entry, looked up): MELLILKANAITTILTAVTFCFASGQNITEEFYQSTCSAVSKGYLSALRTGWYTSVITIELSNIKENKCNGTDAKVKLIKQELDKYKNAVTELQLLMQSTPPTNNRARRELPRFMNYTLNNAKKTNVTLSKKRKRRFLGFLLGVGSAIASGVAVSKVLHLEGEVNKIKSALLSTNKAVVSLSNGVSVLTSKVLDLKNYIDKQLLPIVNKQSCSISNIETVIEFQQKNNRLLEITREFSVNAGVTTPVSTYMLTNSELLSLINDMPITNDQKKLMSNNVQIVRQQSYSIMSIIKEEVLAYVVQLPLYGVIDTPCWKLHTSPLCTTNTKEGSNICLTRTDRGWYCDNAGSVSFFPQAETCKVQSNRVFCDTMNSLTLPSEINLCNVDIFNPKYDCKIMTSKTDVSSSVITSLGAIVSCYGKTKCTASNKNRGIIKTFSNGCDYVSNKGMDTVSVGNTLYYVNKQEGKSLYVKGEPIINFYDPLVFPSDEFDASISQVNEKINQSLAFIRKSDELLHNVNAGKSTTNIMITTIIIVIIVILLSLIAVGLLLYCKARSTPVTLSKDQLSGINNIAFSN

Chain of RSV FxG (respiratory syncytial virus A2 | respiratory syncytial virus (strain not stated for G)) (P03423 whole entry): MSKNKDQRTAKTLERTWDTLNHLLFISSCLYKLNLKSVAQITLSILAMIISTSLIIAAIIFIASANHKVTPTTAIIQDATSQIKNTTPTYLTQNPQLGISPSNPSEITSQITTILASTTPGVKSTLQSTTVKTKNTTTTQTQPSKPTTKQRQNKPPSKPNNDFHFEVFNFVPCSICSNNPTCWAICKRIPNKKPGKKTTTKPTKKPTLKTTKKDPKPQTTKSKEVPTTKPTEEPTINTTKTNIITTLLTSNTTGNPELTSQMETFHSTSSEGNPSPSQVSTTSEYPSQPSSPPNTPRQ
Chain of NiV FxG (Nipah virus (Malaysia strain) | Nipah virus) (Q9IH63 whole entry, looked up): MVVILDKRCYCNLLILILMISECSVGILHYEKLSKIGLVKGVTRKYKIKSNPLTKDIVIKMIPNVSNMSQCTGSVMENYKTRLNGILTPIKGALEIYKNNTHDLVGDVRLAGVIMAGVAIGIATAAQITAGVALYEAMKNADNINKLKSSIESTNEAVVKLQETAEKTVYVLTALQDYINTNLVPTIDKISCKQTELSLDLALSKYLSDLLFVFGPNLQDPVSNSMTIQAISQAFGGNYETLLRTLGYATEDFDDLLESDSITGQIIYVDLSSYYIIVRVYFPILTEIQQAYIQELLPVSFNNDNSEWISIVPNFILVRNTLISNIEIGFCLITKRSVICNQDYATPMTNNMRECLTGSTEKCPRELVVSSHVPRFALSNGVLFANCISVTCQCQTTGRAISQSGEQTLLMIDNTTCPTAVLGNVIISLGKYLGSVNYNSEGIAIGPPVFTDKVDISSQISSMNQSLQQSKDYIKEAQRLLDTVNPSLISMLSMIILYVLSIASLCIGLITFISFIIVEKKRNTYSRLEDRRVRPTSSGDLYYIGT

As to 3D3, the values for the Kd in assay [1] and in assay [2] were 2.11 nM and 0.43 nM, respectively. As to m102.4, in assay [3], the Kd was determined as 0.17 nM. Turning to 2D10, the Kd in assay [1] was determined as 1.29 nM; in assay [2], 0.41 nM. Mota: the values for the Kd in assay [2] and in assay [4] were 0.26 nM and 0.21 nM, respectively. D25: the figures for the Kd in assay [2] and in assay [4] were 0.48 nM and 0.97 nM, respectively. On the same counts, the results for MPE8 are 0.42 nM and 0.64 nM.
